Reference: patent US10125184B2, “Apolipoprotein E polypeptides and their use” (priority 2011, dated 2018)

B1: hEP: human apoE dual-domain peptide: helix 4 of N-terminal domain plus major lipid-binding region; expressed in bacteria (protein)
peptide: EELRVRLASHLRKLRKRLLRDADDLQKRLAVYEEQAQQIRLQAEAFQARLKSWFEPLVEDM

Assays:
[1] = system: HCVcc-luc; assay: Attachment versus post-attachment inhibition assay; assay type: cell-based, Hepatitis C virus; conditions: heparin 200 μg/ml, anti-CD81 5 μg/ml, hEP 20 μg/ml, bafilomycin A1 10 nM
Method: (§1) FIGS. 5A-5D. hEP inhibits HCV entry at the attachment step. (A) HCVcc-luc was first mixed with either scrambled peptide or hEP-2 (20 μg/ml) for one hour at room temperature. In Group 1, mixed virus was directly added to Huh7.5.1 cells, whereas in Group 2, virus was purified through ultracentrifuge at 28,000×g for 4 hours in order to remove peptide, and then used to infect Huh7.5.1 cells. **p<0.005. (B) The kinetics of hEP- and bafilomycin A1-mediated inhibition were determined by time-of-addition assays, as described in the examples section. Fitted lines represent sigmoidal time-dependent curves (mean of n=3; error bars, s.d.). (C) HCVcc-Luc was added to Huh7.5.1 cells at 4° C. and incubated for 1.5 hrs. Unbound virus was removed by 2 washes with cold media, fresh media was added, and the cells were shifted to 37° C. to allow synchronous infection to proceed. Heparin (200 μg/ml), anti-CD81 monoclonal antibody (5 μg/ml), hEP (20 μg/ml), or bafilomycin A1 (10 nM) were present in the media either continuously, during the 4° C. incubation only (attachment), or during the 37° C. incubation phase only (post-attachment). % Inhibition was calculated as 100-percent infection relative to control infections containing DMSO or an isotype antibody control containing 0.01% sodium azide (for anti-CD81 only) (mean of n=3; error bars, s.d.). (D) The effects of hEP (2.7 μM) or scrambled peptide on HCV binding were determined as described in the examples section. Results were calculated as relative RNA copies with numbers obtained from the scrambled peptide treated wells set to 100 (mean of n=3; error bars, s.d.). **p<0.005.
To investigate the mechanistic action of hEP, three sets of experiments were conducted. First, hEP-2 (SEQ ID NO: 9) or scrambled peptide-treated HCVcc were purified through ultracentrifugation to remove the peptide and then used to infect naïve Huh7.5.1 cells. […] Second, to determine the kinetics of inhibition, a time-of-addition experiment was conducted. HCV remained sensitive to bafilomycin A1, a fusion inhibitor that prevents endosome acidification, until 3 hours after the 37° C. temperature shift (FIG. 5B), which is consistent with previous reports (Koutsoudakis et al., J Virol 2006; 80:5308-5320). […] In order to determine whether hEP-2 (SEQ ID NO: 9) blocks infection at the initial attachment step or a downstream event in the HCV entry process, hEP-2 (SEQ ID NO: 9) was either added together with HCVcc to cells during the 4° C. attachment step only, and then removed prior to shifting the temperature to 37° C., or added only after the temperature shift. As a positive control, hEP-1 was present during the entire course of the experiment. […] Finally, the direct binding of virions to cell surface was measured using a real-time PCR based assay.

[2] = system: JFH1 HCVcc; assay: HCVcc binding assay (real-time PCR of vRNA, Huh7.5.1 cells); assay type: cell-based, Hepatitis C virus; conditions: 2.7 μM, 2 hours at 4° C., relative to scrambled peptide
Method: as §1, with “bars, s.d.). […] Heparin (200” for “bars, s.d.). (C) HCVcc-Luc was added to Huh7.5.1 cells at 4° C. and incubated for 1.5 hrs. Unbound virus was removed by 2 washes with cold media, fresh media was added, and the cells were shifted to 37° C. to allow synchronous infection to proceed. Heparin (200”, “s.d.). **p<0.005. […]” for “s.d.). **p<0.005.”

[3] = system: DENY (Thailand 16681); assay: Dengue virus infection of Huh7.5.1 cells (TCID50); assay type: cell-based
[4] = system: HIV-1
[5] = system: CD81; assay: CD81 level on Huh7.5.1 cells by flow cytometry; assay type: cell-based
Method: (§2) FIGS. 4A-4C. (A) Huh7.5.1 cells seeded in a 12-well plate were treated with hEP-2 (20 μg/ml) for indicated time periods. Cells were stained with a mouse IgG (istotype control) or the anti-LDLR antibody followed by flow cytometric analysis. An overlay of 7 histograms is presented and the Δ median fluorescence intensity (ΔMFI, LDLR stain minus isotype control stain) of each sample is indicated to the upper right of the figure. (B) Cells were stained with anti-CD81 antibody and analyzed similarly as in A. (C) Immunonblots of SR-BI, CLDN1, and OCLN in the presence of hEP-2 or scrambled peptide.

[6] = system: HCVpp; assay: HCVpp infection of Huh7.5.1 cells; assay type: cell-based, Hepatitis C virus (H77, JFH1, J6 envelope)
[7] = system: CLDN1; assay: Immunoblot of CLDN1; assay type: cell-based
Method: as §2

[8] = system: LDLR; assay: Surface LDLR level on Huh7.5.1 cells by flow cytometry; assay type: cell-based; conditions: various time periods
Method: as §2

[9] = system: OCLN; assay: Immunoblot of OCLN; assay type: cell-based
Method: as §2

[10] = system: HCVcc-luc; assay: Time-of-addition assay; assay type: cell-based, Hepatitis C virus; conditions: 20 μg/ml (2.7 μM)
Method: as §1, with “bars, s.d.). […] Heparin (200” for “bars, s.d.). (C) HCVcc-Luc was added to Huh7.5.1 cells at 4° C. and incubated for 1.5 hrs. Unbound virus was removed by 2 washes with cold media, fresh media was added, and the cells were shifted to 37° C. to allow synchronous infection to proceed. Heparin (200”, “s.d.). **p<0.005. […]” for “s.d.). **p<0.005.”

Row | Molecule | Inhibition when present after the temperature shift only (post-attachment) [1] | Inhibition when present during the 4° C. attachment step only [1] | Amount of viral RNA (vRNA) bound to cells [2] | Effect on infectivity of DENY [3] | Effect on infectivity of HIV-1 [4] | Effect on level of CD81 [5] | Effect on infectivity of HCVpp [6] | Effect on level of CLDN1 [7] | Change of surface LDLR [8] | Effect on level of OCLN [9] | Activity when added after the temperature shift (time of addition) [10]
1 | EELRVRLASHLRKLRKRLLRDADDLQKRLAVYEEQAQQIRLQAEAFQARLKSWFEPLVEDM [hEP-1] | very little inhibition | strongly inhibited | decreased significantly | – | – | – | – | – | – | – | –
2 | B1 | – | – | – | did not affect the infectivity | did not affect the infectivity | did not affect | did not affect the infectivity | did not affect | did not cause detectable change | did not affect | disappeared almost completely
